T1: ΔNp63α R227Q (UniProt Q9H3D4-2 1-586, R172Q)
T1 sequence: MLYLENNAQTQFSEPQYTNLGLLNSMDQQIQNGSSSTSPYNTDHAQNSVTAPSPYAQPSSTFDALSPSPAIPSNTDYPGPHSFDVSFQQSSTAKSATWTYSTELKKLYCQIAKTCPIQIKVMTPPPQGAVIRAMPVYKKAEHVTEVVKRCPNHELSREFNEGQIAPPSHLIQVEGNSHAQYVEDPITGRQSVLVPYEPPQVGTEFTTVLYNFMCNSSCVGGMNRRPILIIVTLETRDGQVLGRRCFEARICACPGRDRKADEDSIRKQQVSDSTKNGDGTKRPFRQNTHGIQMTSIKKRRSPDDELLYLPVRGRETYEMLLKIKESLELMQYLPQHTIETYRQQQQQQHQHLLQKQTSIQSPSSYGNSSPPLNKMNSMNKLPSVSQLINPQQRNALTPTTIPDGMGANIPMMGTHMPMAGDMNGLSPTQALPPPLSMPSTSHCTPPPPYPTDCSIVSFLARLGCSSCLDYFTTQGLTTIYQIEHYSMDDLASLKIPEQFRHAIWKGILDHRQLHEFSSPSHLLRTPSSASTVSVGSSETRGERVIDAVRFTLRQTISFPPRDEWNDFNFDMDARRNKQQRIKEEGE


Molecular target: T1, ΔNp63α R227Q
Assay: pull-down; not significantly different from WT; SPR DBD-TD: 25 mM HEPES pH 7.5, 200 mM NaCl, 0.5 mM TCEP, 0.005% Tween-20; SPR DBD: 10 mM HEPES pH 7.5, 150 mM NaCl, 0.2 mM TCEP, 0.005% Tween-20; random-sequence dsDNA (S12/S13) as reference cell; pull-down: 50 mM Tris pH 8.0, 150 mM NaCl, 0.1% Tween-20, 4 °C
Details: protein: ivt, tags: Myc, chain copies: 4, blunt

Binder | binding result (label: 5' biotin on S8) | binding result (label: 5' biotin on S10)
p21 RE (pulldown) (dsDNA) DNA 1: GCCAGGAACATGTCCCAACATGTTGAGCCG DNA 2: CGGCTCAACATGTTGGGACATGTTCCTGGC | binds | 
KRT14 RE (pulldown) (dsDNA) DNA 1: AAAATATGACAGACATGATGAGGCGGATGA DNA 2: TCATCCGCCTCATCATGTCTGTCATATTTT |  | binds

— article PMC10113246, “Disease-related p63 DBD mutations impair DNA binding by distinct mechanisms and varying degree”
